Measured values published in patent US20140221283A1 (INDIANA UNIVERSITY RESEARCH AND TECHNOLOGY, published 2014).
*1 amine or outer side, *2 acyl side, *3 side chain or, on linkers, in order; H or OH if unused. Where no end group is shown, it is not given here. Side-chain parts run from the residue outwards. [ ]: non-standard residue; d: D form. The star is where a group is joined. γGlu = O=C(O)[C@H](CCC(=O)[*:2])N[*:1]; Palmitoyl = CCCCCCCCCCCCCCCC(=O)*; Met(O) = CS(=O)CC[C@H](N)C(=O)O; Aib = CC(C)(N)C(=O)O

T1: GIP receptor (assay by the procedure of Example 3)
T1 sequence (P48546 whole entry, species assumed, looked up): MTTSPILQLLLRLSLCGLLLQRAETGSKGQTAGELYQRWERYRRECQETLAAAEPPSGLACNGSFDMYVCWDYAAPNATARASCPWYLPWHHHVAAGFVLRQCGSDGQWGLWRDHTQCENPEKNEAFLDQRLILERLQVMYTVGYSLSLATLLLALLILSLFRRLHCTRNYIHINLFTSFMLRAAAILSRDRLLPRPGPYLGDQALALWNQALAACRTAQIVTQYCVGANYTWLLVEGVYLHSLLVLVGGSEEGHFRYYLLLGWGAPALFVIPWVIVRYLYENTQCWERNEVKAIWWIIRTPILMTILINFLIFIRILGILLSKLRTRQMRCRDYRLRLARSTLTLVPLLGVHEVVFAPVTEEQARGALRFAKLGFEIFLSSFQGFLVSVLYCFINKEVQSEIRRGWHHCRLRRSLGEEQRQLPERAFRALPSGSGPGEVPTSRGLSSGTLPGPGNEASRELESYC

B1: peptide of SEQ ID NO: 15 (peptide)
peptide: H[Aib]QGTFTSDK([γGlu-γGlu-Palmitoyl])SKYLD[Aib]RAAQDFVQWL[Met(O)]DTKQ-OH
modifications: not fully specified; printed as HaibQGTFTSDK(γGlu-γGlu-C16)SKYLDaibRAAQDFVQWLMornDTKQ-acid
B2: peptide of SEQ ID NO: 16 (peptide)
peptide: H[Aib]QGTFTSDK([γGlu-γGlu-Palmitoyl])SKYLD[Aib]RAAQDFVQWLLDTKQ-OH
modifications: N-terminus assumed
SMILES: CCCCCCCCCCCCCCCC(=O)N[C@@H](CCC(=O)N[C@@H](CCC(=O)NCCCC[C@H](NC(=O)[C@H](CC(=O)O)NC(=O)[C@H](CO)NC(=O)[C@@H](NC(=O)[C@H](Cc1ccccc1)NC(=O)[C@@H](NC(=O)CNC(=O)[C@H](CCC(N)=O)NC(=O)C(C)(C)NC(=O)[C@@H](N)Cc1c[nH]cn1)[C@@H](C)O)[C@@H](C)O)C(=O)N[C@@H](CO)C(=O)N[C@@H](CCCCN)C(=O)N[C@@H](Cc1ccc(O)cc1)C(=O)N[C@@H](CC(C)C)C(=O)N[C@@H](CC(=O)O)C(=O)NC(C)(C)C(=O)N[C@@H](CCCNC(=N)N)C(=O)N[C@@H](C)C(=O)N[C@@H](C)C(=O)N[C@@H](CCC(N)=O)C(=O)N[C@@H](CC(=O)O)C(=O)N[C@@H](Cc1ccccc1)C(=O)N[C@H](C(=O)N[C@@H](CCC(N)=O)C(=O)N[C@@H](Cc1c[nH]c2ccccc12)C(=O)N[C@@H](CC(C)C)C(=O)N[C@@H](CC(C)C)C(=O)N[C@@H](CC(=O)O)C(=O)N[C@H](C(=O)N[C@@H](CCCCN)C(=O)N[C@@H](CCC(N)=O)C(=O)O)[C@@H](C)O)C(C)C)C(=O)O)C(=O)O
B3: peptide of SEQ ID NO: 14 (peptide)
peptide: HSQGTFTSDKSKYLDERAAQDFVQWLLDTKX
modifications: lower-case 's' at position 2 (taken as D-Ser; the table does not explain it); Lys at position 10 acylated as K(γGlu-C16); C-terminal γGlu; C-terminal amide

target: T1, GIP receptor (assay by the procedure of …); assay: cell-based or functional assay

Binder	EC50 (nM) at GIP receptor (procedure of Example 3) [nM]
B1	1.9
B2	1.04
H[Aib]QGTFTSDK([γGlu-γGlu-Palmitoyl])SKYLD[Aib]RAAQDFVQWLMDTK[γGlu]-NH2 [peptide of SEQ ID NO: 12]	12.8
H[Aib]QGTFTSDYSKYLDERRA[Aib]EFVC(40K‑TE PEG)WLLDTK[γGlu]-NH2 [peptide of SEQ ID NO: 13]	140
B3	976
